Reference: the supplement of paper PMC6757056
± gives the standard deviation of the averaged measurements.

B1: library; a variant is named by its letters at N, in order (parent)
chain: GCUGUCACCGGUGUAUUACCCUAGUGGUCGACCGGUCUGAUGAGUCUNNNNNNAGACGAAACAGC

Experiments:
hypoxanthine [1] = variants of: B1; assay: FACS-Seq fitted mean relative fluorescence mCherry/BFP without ligand (log10 relative fluorescence); ligand: hypoxanthine (xanthine aptamer); higher = higher reporter protein expression; details: HEK293T, ligand present: no
In short: (§1)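 After lentiviral transduction, HEK293T library cells bearing an mCherry ribozyme-switch reporter and an EF1α-BFP marker were enriched. They were then held for 48 h with or without ligand and sorted by mCherry/BFP into 6 bins, and each bin's genomic DNA was PCR-amplified, barcoded and MiSeq-sequenced. Fluorescence is expressed as a normalized fitted mean: the normal mean of log10(mCherry/BFP) bin counts, scaled to five spiked-in control ribozymes.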

hypoxanthine [2] = variants of: B1; assay: normalized RNA/DNA level with ligand (relative to sTRSVctl = 100) (log10 (% of sTRSVctl)); ligand: hypoxanthine (xanthine aptamer); higher = less ribozyme self-cleavage, higher mRNA level; details: ligand concentration (+) RNA-Seq: 5 mM, HEK293T, reporter: mCherry (pCS4076), ligand present: yes
In short: (§2)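 RNA level was computed as RNA reads over DNA reads divided by a spiked-in non-cleaving sequence or by the top sequences, then scaled and log-transformed. Scaling was ×100 with log10, the top group was 25 sequences, and the threshold was ≥100 DNA reads. The reads came from HEK293T cells transfected at 4 µg per 6-well well with ribozyme switch library plasmids (mCherry, or eGFP in some ligand experiments). Total RNA was extracted with EDTA 72 h after transfection, with any ligand added 1 h before it.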

hypoxanthine [3] = variants of: B1; assay: normalized RNA/DNA level without ligand (relative to sTRSVctl = 100) (log10 (% of sTRSVctl)); ligand: hypoxanthine (xanthine aptamer); higher = less ribozyme self-cleavage, higher mRNA level; details: HEK293T, reporter: mCherry (pCS4076), ligand present: no
In short: as §2

hypoxanthine [4] = variants of: B1; assay: FACS-Seq fitted mean relative fluorescence mCherry/BFP with ligand (log10 relative fluorescence); ligand: hypoxanthine (xanthine aptamer); ligand concentration (+) FACS-Seq: 5 mM; higher = higher reporter protein expression; details: HEK293T, ligand present: yes
In short: as §1

| Variant | FACS-Seq fitted mean (log10) (hypoxanthine [1]) | normalized RNA/DNA level with ligand (log10) (hypoxanthine [2]) | normalized RNA/DNA level without ligand (log10) (hypoxanthine [3]) | FACS-Seq fitted mean (log10) (hypoxanthine [4]) |
| --- | --- | --- | --- | --- |
| UUCGGU | 0.323 ± 0.015 | 1.93 ± 0.044 | 1.78 ± 0.036 | 0.492 ± 0.007 |
| GUCGCA | 0.304 ± 0.021 | 1.94 ± 0.037 | 1.788 ± 0.0024 | 0.56 ± 0.0098 |
| CUGAGA | 0.665 ± 0.033 | 1.93 ± 0.036 | 1.77 ± 0.058 | 0.753 ± 0.0013 |
| CUGAGG | 0.424 ± 0.071 | 1.91 ± 0.03 | 1.58 ± 0.025 | 0.466 ± 0.031 |
| CUGCAG | 0.429 ± 0.068 | 1.96 ± 0.02 | 1.73 ± 0.066 | 0.677 ± 0.016 |
| GUGCAC | 0.5159 ± 0.0044 | 1.87 ± 0.046 | 1.672 ± 0.0021 | 0.536 ± 0.016 |
| GUGCAA | 0.274 ± 0.033 | 1.904 ± 0.0021 | 1.69 ± 0.037 | 0.57 ± 0.059 |
| GUGCAG | 0.0446 ± 0.026 | 1.739 ± 0.0069 | 1.3 ± 0.099 | 0.427 ± 0.039 |
| GUGCAU | -0.413 ± 0.2 | 1.91 ± 0.038 | 1.74 ± 0.018 | -0.852 ± 0.077 |
| AUGCUA | 0.499 ± 0.086 | 1.966 ± 0.0068 | 1.788 ± 0.0045 | 0.706 ± 0.029 |
| UUCGUA | 0.252 ± 0.0058 | 1.93 ± 0.064 | 1.87 ± 0.026 | 0.384 ± 0.035 |
| UUCCCG | 0.397 ± 0.063 | 1.919 ± 0.0045 | 1.83 ± 0.046 | 0.514 ± 0.064 |
| UUCCUG | -0.284 ± 0.019 | 1.93 ± 0.041 | 1.756 ± 0.0019 | -0.379 ± 0.12 |
| UUGCCG | 0.171 ± 0.068 | 1.98 ± 0.039 | 1.83 ± 0.038 | 0.358 ± 0.006 |
| CUGAUA | 0.486 ± 0.026 | 1.877 ± 0.003 | 1.7 ± 0.055 | 0.601 ± 0.13 |
| GUGCCG | 0.6409 ± 0.0059 | 1.912 ± 0.0077 | 1.55 ± 0.025 | 0.557 ± 0.12 |
| AUCAGG | 0.386 ± 0.072 | 1.87 ± 0.01 | 1.48 ± 0.061 | 0.617 ± 0.048 |
